Our source for the protein production values is a protein production outcome set (Wang et al. 2014).
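Also: failed if final PepcDB status was selected cloned or expressed and not failed if soluble or beyond.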

The data set can be described thus: label from the status in PepcDB records.
As to “MEFLSLVIVVVAAFMTPIIVHRFNINFLPVVVAEILMGIVIGHSFLNLVERDAFLNILSTLGFIFLMFLSGLEIDFNAFKKDSRPRQGEDKHEKDVPGHLKLALTVFAFIMMISVVLAFAFKWLGLVNDVLLMVIIISTISLGVVVPTLKEMNIMRTTIGQFILLVAVLADLFTMILLTVYGAIYGEGGSTIWLTGILVVFTVVFYVIGVLFKRMSFLQKLMDGTTQIGIRAVFALIILLVALAEGVGAEYILGAFLAGVVVSLLKPNEEMVEKLDSFGYGFFIPIFFIMVGVDLDIPSLIKEPSLLLIIPVLIFSFIISKLIPVFYIRRWFDTKTTIASAFLLTSTLSLVIAAAKIAEKLKAISPETSGILILSAVITCVFVPVIFKKMFPIPNEVGRRIEVSMIGKNQLTIPIAQNLTSQLYDISLYYRKDLSDSRKLSDDITMIEIADYEEDLLERLGLFERDIVVCSTNDDHINKSVALMAKKHGVKRVICRLESTNEDPTLKHQGIEVFSNYLSNKILLKSLIETPNMLNLLSNVETSLYEIQMLNYQYENIQLRNFPFGGDIIFVRIIRDNDSIVPHGDTQLRYKDRLIVTGTKEYVDELKQELEFYY”, the protein production result is recorded as “failed”. For “MEFNQFGQPIGHAIQQPIPGKFKAQSLIGNDVNLVLIEQDRVALKNVEQLWDCIKTEPDERCWTYLPYEAPETFRQLEYNLKRNFGFEPSFHYWIMVEGQAVGWIALMNLREQHAAVEIGNVYFSHRLKQTAAATEVIYLLLNHCFEQGLRRIEWKCDDLNGPSKRAALRFGFVYEGLFRQDRVSKGRNRDTTWFSIIDSEWASLKTAYLQWLNPDNFNHAGKQKKRLEDFIVT”, the protein production entry was “failed”.

As to “MEFQLWGAKIVIEPKPDLRYLYLEITNRCNLKCEMCFKQYWEDKEGDMDWDLFLKILDDAKEFPELKMIYFGGIGEPSVHPRFMDMVREVKRRGFRLGMSTNGVLLEDKILEEFVKLGVDVVYFSMDAIPTPSNIVTLGHITSKVVESRIKKLVELKKRYKTEKPTIGVEVVATKENYKQLPEMAIYLRNLGVDSMLISNLIPMTKEHSKAIVYDGSVDMTPIVNELHQIAEGGPFMRIAEFKLRTNRYCDFIENNVTVVRWDGEVFPCYRFLHTYPEVIFGREKKVIAHSFGNVKEKSLKDIWMSEEYVRFRFLVKASAYPSCIDCPLNTSCSFALDTTQDCWGTSPSCGDCLWSRGIVLCPIPFEYMGKFL”, the protein production result is “failed”.

For the sequence “MEFQSTVVATVDCQKQVRSWRLLRSFIQLLIPTCNCTLVQELEQDNTNLRGKKLYNDIKSRTSSFRSSSSLSSSTVTGTIFGYRKGKINFCIQTPRKSTNLDLLLELAVPTTVLAREMREGALRIVLERNNEKQDDDSFLSKPFWNMYCNGKRVGYARKRSPSQDDMTALTALSKVVVGAGVVTGKELGRFDDELMYLRASFRRVNGSKESESFHLIDPAGNIGQELSIFIVPSSV”, the protein production entry was “failed”.

As for “MEFSLIADTVTVCTAKQGIAFGKSLLQRLDLANHISFADSVVDHQSPGGGIVQASAIIFPVDAIAPPPVRSSSYKTIRRIRKKRRTRRVSFGGDGDDAGDFGRFLLEGDFGGSDGPFGFGGGGNDGGGKGWNYGGGGGGFGRDNWDGSSFSSWSDPAMEFVYEVICWIALSNCVHFAFKRIVRIVTDGEREKLNIALSPVC”, the protein production entry is given as “failed”. “MEGLESVYAQAMYGMTRESKIMEHQGSDLIWGGNELMARELCSSSSYHHQLINPNLSSCFMSDLGVLGEIQQQQHVGNRASSIDPSSLDCLLSATSNSNNTSTEDDEGISVLFSDCQTLWSFGGVSSAESENREITTETTTTIKPKPLKRNRGGDGGTTETTTTTTKPKSLKRNRGDETGSHFSLVHPQDDSEKGGFKLIYDENQSKSKKPRTEKERGGSSNISFQHSTCLSDNVEPDAEAIAQMKEMIYRAAAFRPVNFGLEIVEKPKRKNVKISTDPQTVAARQRRERISEKIRVLQTLVPGGTKMDTASMLDEAANYLKFLRAQVKALENLRPKLDQTNLSFSSAPTSFPLFHPSFLPLQNPNQIHHPEC”: the protein production entry is on record as “failed”. As for “MEHIEIRVSATGSMSSFHALCSFHQWPINVACSCWLSHCYRIYSLYPPQLVSCSDRLSTSGNTNAGAEFVTE”, the protein production entry is on record as “failed”. Consider “MEHSNLRKKHNYKFTISTLTLSCLMAFNAQAAVDCSPLEAWDAGKVYNGGEEVKQGTNAYKAKYWTQNNDPATAGEWGAWQDLGVCSGEVPNEAPTVDLTSPSATEQLTTGDLVTLTASAADSDGNIVRVDFSVDGVVISSVTASPYSTTWTALEGNHTISAQSYDDKGAQSTVSSVAINVTNTPTDNIAPTATLSLSATNVELGSVVTLTADAVDSDGTIDKVDFYIDNTLVGTAATAPYTLQYTTTAVGSLSVYAKATDNLGATANSASTNLTVTSSLPVADNCRPDGLYQTEGVTVPYCTIYDKEGREKMGADHPRRVIGYFTSWRDGGDEQNSYLVKDIPWEQLTHINYAFVSIGSDGKVNVGDVTDPNNAATGKEWAGVEIDPALGFKGHFGALATAKAKHGVKTLISIGGWAETGGHFGADGNRVADGGFYTMTTNADGSINHAAIEKFAVSAVEMMRKYKFDGLDIDYEYPTSMAGAGNPDDKEFMEPRRQYLWASYQVLMKTLREKLDVASAQDDIHYMLTIAAPSSGYLLRGMETFDVTQYLDYVNIMSYDLHGAWNDHVGHNAALYDTGKDSELAQWNVYGTEAYGGIGYLNTDWAYHYFRGSMPAGRINIGVPYYTRGWQGVTGGENGLWGRAPLPDQAKCEPGTGEGEKNNCGYGALGIDNMWHDKNSYGQEMGAGSNPMWHAKNLQEGIFGSYANIYGLDPANDPADQLVGTYTRHYDSVAVAPWLWNAEKKVFLSTEDKDSINVKADYVIDQEIGGIMFWELAGDYSCYVLDSNGNRTSVDATEAACQTGNGEYHMGNTMTKAIYEKFKSATPYGNTVATGAIPTETVDIAVNVGGFKVGDQNYPINPKVTFTNNTGQDIPGGTEFQFDIPVSAPDNAKDQSGGGLQVIASGHTRPNNIGGLDGTMHRVAFTLPAWKALPAGGVYELDMVYYLPISGPANYTVNINNVDYAFKFEQPDLPLADLSSGGNNGGNGGTPDAGCDATGLVTYPDLPQKDWAGNPSHANTGDQVVHNNVIYQANWWTAAEPGSDGSWTKVCNL”, for which the protein production entry is listed as “failed”. With “MEIEQQQPLPSERGLSPVARRALIGAITGCFVLGGVLMLLPPAGREPAAPPAPAAGPMAGPVAQAKAAVGAGVPVALPALAALVTDHETHLRAHPRDARSWAVLGAAYVAQGKGTADAAYFPKAEEALRTSLNVAPRRNAEALGALAALANARGDYREAKQWGEAAVKMAPKQWPAYAQLIDAYDGLGDYKATGKTLDKLLGLRAGPAAAARAAQVYRARGWREDAAAAIADATARAGSPAEQAVYWQQAGELAWERGEPEQALRYFETALRTDPDRHAALAGQGRALAALGRTSDAVNAYRAALAKQPLAAYAVELGELYESQGLGGAAQVQYYLVRERVRQDAAGGVNNRLVVGQFEADHGDAEVAVRELREEWKRQPSIRVADALGWALHRAGQDQEALGFATKAMDKEHGGGVRSALYAYHRGEIERALDQLAPARRHLAEALRINPHFSPWFAPMAKETLAELGEPPAEGLPGDEEVEAAEAEAAEAAEAAQTPEAAESVDPAQTEQVPPPGASTPVPQEPEAR” the entry was “failed”; with “MEIEVKFRVNFEDIKRKIEGLGAKFFGIEEQEDVYFELPSPKLLRVRKINNTGKSYITYKEILDKRNEEFYELEFEVQDPEGAIELFKRLGFKVQGVVKKRRWIYKLNNVTFELNRVEKAGDFLDIEVITSNPEEGKKIIWDVARRLGLKEEDVEPKLYIELING”, “not failed”. For “MEIFEDVVRCGGFRAAALGRGVSSSAISQSISVLEEALGIRLLNRTTRSVAPTEAGEQLLERLRPALYEIRTAVDDLNQLRERPSGTVRINAPGPAADHVLCPLTFEFMKIYPDVNVEIVSDAAIIDIVEQGFDAGVRFGNQLAQDMIAMPLGPALRYAIVASPDYLRKRGRPHSPRDLLQHDCIRRRFPGGTMVTWKFARDGDEVEITPKGRLTLSSAHQELQAALAGSGIAHLFEDYVRDDVEQGRLVELLCDWKQKLPSWYLYYPSRRHTSAAMRAFLEYIRNQRQHPDRR”, the protein production entry is reported as “failed”.

As for “MEIFELILLMLSAVFLSNVLSRFLPSIAVPLIQVLLGIILAIPLGDHTMDINPELFLLLFMAPILFNDGARTDKKSLWKNRKAILSLSIGLVFVTVGVLGAFIHYLIPAIPFAAAFALAAALAPTDAVAVGALAEKVRVPHKIMHILEGESLINDASGLVSFQFAVLALVTGTFSFMSAGTSFLLLSLGGIALGVVLSLLKIMLMRGLRQLGIENMTSFMLMEILLPFLIFMVAENIGVNGILAVVSGGMVHSFSYKRINPEMAQLNLLSKNTWSVIIFSLNGLVFVLLGTQLPQIMTAIWEDTGIHKSMLFLYIFGITFLLLALRFLWILFFRNYEENPHADLVSRLKNTFLYTVAGVRGTITLVSALSLPFVLGQGNAFPERDLLIFIAAGVIITTLLLANFTLPLFAAKKDVVVADHTTAIALLRDVVGQLQRYKTDENEVEMNNVLKMYNGRIFSLMEHKEVSATEKELRRLTQEWQLENTRRLVFERKIDTGVGLSLMMRLGKRLYVQTRAQKYRARMRYRQLLSHSIRDFRIVPLSFEERRKERAKLQTENNQFVVQKLNELDKNEFNPEVISLYLMNFERALGSGKHKKETDNEELQTTIDLASQIERETIQHYFEKGTITRKEMKVYRDNLLAIEASFQLEF”, the protein production entry was “failed”. Take “MEIFILIGLIVLNGLFAMSEIAIVTARKSRLTALAHAGSSTAKAALKLAEDPTQFLSTVQIGITSIGILNGIFGESILAEPLSLWLQTFGLSPDVTNIFSTVLVVIIVTYVSIVIGELVPKRIGQVSAESIACIMAKPMVFLAIATKPFVWMLSGSTHALMRLMGFSHRLDDNVTQEDIQAMLQEGSSAGVIEHNEHAMVKNVFRLDERTISSLMVPRSDIVFLDLNLPLDANLRTVMQSPHSRFPVCRNNVDDMVGIISAKQLLSESIAGERLELVDLVKNCNFVPNSLSGMELLEHFRTTGSQMVFVVDEYGDLKGLVTLQDMMDALTGEFFQEDVNDQMVIKREDGSLLLDGLIPIFDLKDALGIKQLPNEEDGRYQTLNGFLMYELGKIPQTTDIVEVAGWRLEIMDMDGKRVDKVLAQKLPDAEDSEESIFVDL”: the protein production result is “failed”. For “MEIGIIGTGNIGGTLARKLIAAGHQVRVANSKGIHGVQSFADEIGATAVDVYGAVKGADAIILSIPLPALASLPNGFFDDLPETVPLIDTSNYYPGLRDPLIPEIDDGMTESVWVSQQLSHPVIKAFNNILAWSLAELGTPKGSASRLAIAVAGDNATLKQIVMNLVDDTGFDAIDAGSLEESWRQQPSTPAYCCDYDAETMKKGLTAAVRGEAASKRDRLPELFGKLGANPTHEDIVAMNRSLNPLEHHHHHH”, the protein production result is “not failed”.

On to “MEIGVVGKPNVGKSTFFSAATLVDVEIANYPFTTIEANVGVTYAITDHPCKELGCSPNPQNYEYRNGLALIPVKMVDVAGLVPGAHEGRGLGNKFLDDLRMASALIHVVDATGKTDPEGQPTDYHDPVEDIEFLEREIDYWIYGILSKGWDKFAKRIKLQKIKLESAIAEHLSGIGVNENDVWEAMHKLNLPEDPTKWSQDDLLAFASEIRRVNKPMVIAANKADAASDEQIKRLVREEEKRGYIVIPTSAAAELTLRKAAKAGFIEYIPGASEFKVLRDMSEKQKRALMVIKEKVLDRFGSTGVQEVINRVVFDLLKLIPVYPVHDENKLTDQFGNVLPHVFLMKKGSTPRDLAFKVHTDLGKGFLYAINARTKRRVGEDYELQFNDIVKIVSVTR”, for which the protein production entry was “not failed”.

Consider “MEIKPVSPEIVSDKLTKVILVFYKTISEIIYPLAILGYCISVILIITGSCFHSRTVMKMGIVNFCVITLVLISYFFMPSFIGILKSIETILR”, for which the protein production result is “failed”.

In the case of “MEIKRILVSRTDKIGDLVLSIPSFFMLKKMYPNAELVVIVRKYNVDIVKNLPYIDRIVIIDEYSKAELLEKIAYFKADVFIALYNDSYIASLARASKAKIKIGPISKLSSFFTYNKGVLQKRSLSLKNEGQYNLDLVTKLDRKRFAILEHHHHHH”, the protein production entry is “failed”.
